From PMC5615192 (mBio, 2017)

B1: A12A3 Fab (Fab, V domains shown)
VH: EVQLQQSGAELVRPGALVKLSCKASGFNIKDYYMHWVKQRPEQGLEWIGWIDPENGKTIYDPRFRGKASITADTSSNTAYLQLSSLTSEDAAVYYCATSNYRYDRSFDYWGQGTTLTVSA
VL: DIQMTQSPSSLFASLGGKVTITCKASQDINKYIAWFQHKPGKGPRLLIHYTFTLQPGIPSRFSGSGSGRDYSFSISNLEPEDIATYYCLQYHNLYTFGGGTKLEIK
notes: also called Fab fragment of A12A3; source: papain digestion of MAb A12A3, purified with DEAE-5PW exchange
B2: HPV58 L1 pentamer (natural protein)
chain: EATVYLPPVPVSKVVSTDEYVSRTSIYYYAGSSRLLAVGNPYFSIKSPNNNKKVLVPKVSGLQYRVFRVRLPDPNKFGFPDTSFYNPDTQRLVWACVGLEIGRGQPLGVGVSGHPYLNKFDDTETSNRYPAQPGSDNRECLSMDYKQTQLCLIGCKPPTGEHWGKGVACNNNAAATDCPPLELFNSIIEDGDMVDTGFGCMDFGTLQANKSDVPIDICNSTCKYPDYLKMASEPYGDSLFFFLRREQMFVRHFFNRAGKLGEAVPDDLYIKGSGNTAVIQSSAFFPTPSGSIVTSESQLFNKPYWLQRAQGHNNGICWGNQLFVTVVDTTRSTNMTLCTEVTKEGTYKNDNFKEYVRHVEEYDLQFVFQLCKITLTAEIMTYIHTMDSNILEDWQFGLTPPPSASLQDTYRFVTSQAITCQKTAPPKEKEDPLNKYTFWEVNLKEKFSADLDQFPLGRKFLLQSGLKAKPRLKRSAPTTRAPSTKRKKVKK
notes: also called HPV58p; HPV58 pentamer

Tests used:
HPV58 L1 pentamer = molecular target: T1, HPV58 L1 pentamer (human papillomavirus type 58, UniProt P26535); assay: crystal structure; conditions: both partners purified
T1 construct: also called HPV58p; HPV58 pentamer

crystal structure = molecular target: the molecule itself; assay: crystal structure

Binder | stoichiometry N (HPV58 L1 pentamer) [Fab per pentamer] | stoichiometry N (crystal structure)
B1 | 1 | –
B2 | – | 5
